For one data set, the target named is U1A (Homo sapiens) (UniProt P09012). Kind of data set: pulldown. The settings on record: TALON beads, 4 C.
The target of another data set is L7Ae (UniProt O29494). As to conditions: RNA microarray, 5 nM L7Ae.
The target of the next data set is T1, Lin28A (UniProt Q9H9Z2).
T1 sequence: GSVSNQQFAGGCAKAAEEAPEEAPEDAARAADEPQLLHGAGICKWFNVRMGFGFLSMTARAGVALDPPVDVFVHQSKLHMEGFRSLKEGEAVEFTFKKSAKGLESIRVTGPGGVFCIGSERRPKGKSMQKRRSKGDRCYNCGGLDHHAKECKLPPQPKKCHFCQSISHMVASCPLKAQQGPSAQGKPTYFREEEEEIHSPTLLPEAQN
Description: pulldown. As to conditions: TALON beads, 4 C.

The values below come from patent publication US20170022545.

Chain of U1A (Homo sapiens) (P09012 2-282): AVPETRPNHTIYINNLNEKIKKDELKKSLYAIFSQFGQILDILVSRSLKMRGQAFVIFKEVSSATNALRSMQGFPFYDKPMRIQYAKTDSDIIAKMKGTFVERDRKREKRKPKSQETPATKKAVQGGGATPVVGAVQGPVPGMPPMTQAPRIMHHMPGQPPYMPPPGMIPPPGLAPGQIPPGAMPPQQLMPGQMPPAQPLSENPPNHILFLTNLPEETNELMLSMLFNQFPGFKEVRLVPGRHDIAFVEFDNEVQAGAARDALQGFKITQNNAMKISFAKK
Chain of L7Ae (O29494 whole entry): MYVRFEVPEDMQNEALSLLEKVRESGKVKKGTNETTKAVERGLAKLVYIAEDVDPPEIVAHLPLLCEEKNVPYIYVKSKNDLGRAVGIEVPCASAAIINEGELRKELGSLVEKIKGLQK

Consider hsa-mir-2682 loop, for which, in the data set with U1A (Homo sapiens), the binding signal (Cy5 intensity) amounted to 8.27.
Take hsa-mir-6834 loop: the binding signal (log2 Cy3-Cy5+20) in the data set with L7Ae amounted to 11.5.
On to hsa-mir-4499 loop, for which the binding signal (Cy5 intensity) in the data set with U1A (Homo sapiens) came out at 8.28.
Same read-out and setting: for hsa-mir-1273h loop the value was 8.2.
Same read-out and setting: for hsa-mir-3661 loop the value was 9.05.
Same read-out and setting: for hsa-mir-378c loop the value was 8.37.
hsa-mir-204 loop returned a binding signal (log2 Cy3-Cy5+20) with L7Ae of 11.7.
hsa-mir-658 loop: the binding signal (Cy5 intensity) with U1A (Homo sapiens) stood at 8.27.
With hsa-mir-1233-2 loop, in the data set with Lin28A, the binding signal (Cy5 intensity) was 6.43.
The same measure, in the same setting: next, hsa-mir-4730 loop: 6.28; hsa-mir-6775 loop: 6.44.
mmu-mir-6995 loop returned a binding signal (log2 Cy3-Cy5+20) in the data set with L7Ae of 12.2.
Turning to hsa-mir-4723 loop, the binding signal (Cy5 intensity) with U1A (Homo sapiens) was 8.48.
hsa-mir-363 loop yielded a binding signal (log2 Cy3-Cy5+20) in the data set with L7Ae of 12.5.
In the data set with U1A (Homo sapiens), hsa-mir-493 loop returned a binding signal (Cy5 intensity) of 8.41.
In the data set with Lin28A, hsa-mir-5004 loop yielded a binding signal (Cy5 intensity) of 6.38.
For mmu-mir-7061 loop, the binding signal (log2 Cy3-Cy5+20) in the data set with L7Ae worked out at 11.8.
The same measure, in the same setting: for hsa-mir-16-2 loop the value was 11.5.
Take hsa-mir-6884 loop: in the data set with Lin28A, the binding signal (Cy5 intensity) came to 6.37.
As for hsa-mir-1-2 loop, the binding signal (log2 Cy3-Cy5+20) in the data set with L7Ae came to 11.3.
With hsa-mir-1233-1 loop, the binding signal (Cy5 intensity) with Lin28A amounted to 6.55.
Still for that read-out and setting: next, hsa-mir-4453 loop: 6.54.
For the substance mmu-mir-7220 loop, the binding signal (log2 Cy3-Cy5+20) with L7Ae was 11.5.
In turn, hsa-mir-598 loop gave a binding signal (Cy5 intensity) in the data set with Lin28A of 6.47.
Consider hsa-mir-98 loop, for which the binding signal (Cy5 intensity) in the data set with Lin28A was found to be 6.41.
In turn, hsa-mir-638 loop yielded a binding signal (Cy5 intensity) in the data set with Lin28A of 6.27.
For hsa-mir-6845 loop, the binding signal (Cy5 intensity) with U1A (Homo sapiens) was found to be 9.06.
As for hsa-mir-4315-2 loop, in the data set with U1A (Homo sapiens), the binding signal (Cy5 intensity) is 8.28.
Take hsa-mir-4479 loop: the binding signal (log2 Cy3-Cy5+20) with L7Ae was determined as 11.3.
Take hsa-mir-6807 loop: in the data set with U1A (Homo sapiens), the binding signal (Cy5 intensity) was found to be 8.28.
As to mmu-mir-466p loop, the binding signal (log2 Cy3-Cy5+20) in the data set with L7Ae was 13.3.
In the case of hsa-mir-4524b loop, in the data set with Lin28A, the binding signal (Cy5 intensity) is 6.33.
For the substance hsa-mir-7848 loop, in the data set with U1A (Homo sapiens), the binding signal (Cy5 intensity) came to 8.69.
The same measure, in the same setting: for hsa-mir-1302-6 loop the value was 8.55.
As for hsa-mir-6773 loop, in the data set with L7Ae, the binding signal (log2 Cy3-Cy5+20) is 11.3.
hsa-mir-5196 loop came in with a binding signal (Cy5 intensity) in the data set with U1A (Homo sapiens) of 8.67.
On to hsa-mir-34a loop, for which the binding signal (log2 Cy3-Cy5+20) in the data set with L7Ae came to 11.3.
With hsa-mir-6839 loop, the binding signal (Cy5 intensity) in the data set with Lin28A stood at 6.39.
hsa-mir-4296 loop registered a binding signal (Cy5 intensity) with Lin28A of 6.29.
On the same count and under the same terms, next, hsa-mir-940 loop: 6.33.
Consider hsa-mir-637 loop, for which the binding signal (Cy5 intensity) with U1A (Homo sapiens) is 8.4.
Regarding hsa-mir-422a loop, in the data set with U1A (Homo sapiens), the binding signal (Cy5 intensity) is 8.78.
Same read-out and setting: for hsa-mir-412 loop the value was 8.95.
The substance mmu-mir-6338 loop came in with a binding signal (log2 Cy3-Cy5+20) with L7Ae of 11.6.
Turning to hsa-mir-6758 loop, the binding signal (Cy5 intensity) with Lin28A worked out at 6.35.
Consider hsa-mir-6796 loop, for which, in the data set with U1A (Homo sapiens), the binding signal (Cy5 intensity) turned out to be 8.72.
